The source of these data is patent publication US12528864 (GlaxoSmithKline, dated 2026).

By EC50 (read off the curve) is commonly meant the midpoint of the concentration-response curve. As usually defined, the EC50 is the concentration giving half of the maximal effect.

The target in assay [1] is T1, cynomolgus monkey CD96v2 expressed on cells (CHO cells; transiently transfected HEK cells) (cynomolgus monkey, UniProt A0A2K5TWV6 22-569).
T1 construct: the cell is named under assay; also called CHO-cyCD96; Cyno CD96v2
T1 sequence: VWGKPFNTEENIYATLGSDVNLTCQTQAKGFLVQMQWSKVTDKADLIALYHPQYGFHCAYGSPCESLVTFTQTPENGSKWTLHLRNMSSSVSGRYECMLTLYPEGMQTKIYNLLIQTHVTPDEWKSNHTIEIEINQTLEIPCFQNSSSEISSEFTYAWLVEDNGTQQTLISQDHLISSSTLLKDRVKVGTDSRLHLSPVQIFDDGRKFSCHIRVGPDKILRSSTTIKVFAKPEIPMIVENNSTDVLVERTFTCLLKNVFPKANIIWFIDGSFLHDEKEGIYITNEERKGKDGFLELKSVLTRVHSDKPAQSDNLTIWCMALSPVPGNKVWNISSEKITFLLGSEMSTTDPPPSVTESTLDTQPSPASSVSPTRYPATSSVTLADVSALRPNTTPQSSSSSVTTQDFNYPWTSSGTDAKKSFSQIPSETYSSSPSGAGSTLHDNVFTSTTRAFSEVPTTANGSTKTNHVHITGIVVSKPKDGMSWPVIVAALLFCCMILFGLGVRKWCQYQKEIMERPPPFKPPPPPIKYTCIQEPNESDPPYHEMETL
As to the kind of experiment: flow cytometry on transiently transfected HEK cells (Cyno CD96v2).

Assay [2] has as its target T2, human CD96v2 expressed on cells (CHO cells; transiently transfected HEK cells) (human, UniProt P40200-2 22-569).
T2 construct: whole, on cells; the cell is named under assay; also called CHO-huCD96; hCD96v2
T2 sequence (looked up): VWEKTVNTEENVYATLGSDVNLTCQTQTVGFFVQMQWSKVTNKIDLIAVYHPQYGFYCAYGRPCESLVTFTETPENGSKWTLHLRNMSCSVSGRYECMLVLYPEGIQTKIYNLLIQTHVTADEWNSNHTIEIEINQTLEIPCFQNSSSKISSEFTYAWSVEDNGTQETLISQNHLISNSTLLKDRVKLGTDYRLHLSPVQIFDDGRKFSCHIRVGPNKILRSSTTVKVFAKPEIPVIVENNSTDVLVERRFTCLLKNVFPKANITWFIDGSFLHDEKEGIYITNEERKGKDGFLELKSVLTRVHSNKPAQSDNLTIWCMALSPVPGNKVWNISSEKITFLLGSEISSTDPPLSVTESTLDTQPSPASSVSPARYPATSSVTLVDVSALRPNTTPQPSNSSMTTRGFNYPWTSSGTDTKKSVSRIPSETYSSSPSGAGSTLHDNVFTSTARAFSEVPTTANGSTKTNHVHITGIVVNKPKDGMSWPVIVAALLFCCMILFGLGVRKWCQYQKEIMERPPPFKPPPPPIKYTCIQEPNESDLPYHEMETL
As to the kind of experiment: flow cytometry on transiently transfected HEK cells; lower end of range, n = 3.

Assay [3] deals with T1, cynomolgus monkey CD96v2 expressed on …. Described as above.
In assay [4] the target is T3, human CD96v1 on transiently transfected HEK cells (human, UniProt P40200 22-585).
T3 construct: whole, on cells
T3 sequence (looked up): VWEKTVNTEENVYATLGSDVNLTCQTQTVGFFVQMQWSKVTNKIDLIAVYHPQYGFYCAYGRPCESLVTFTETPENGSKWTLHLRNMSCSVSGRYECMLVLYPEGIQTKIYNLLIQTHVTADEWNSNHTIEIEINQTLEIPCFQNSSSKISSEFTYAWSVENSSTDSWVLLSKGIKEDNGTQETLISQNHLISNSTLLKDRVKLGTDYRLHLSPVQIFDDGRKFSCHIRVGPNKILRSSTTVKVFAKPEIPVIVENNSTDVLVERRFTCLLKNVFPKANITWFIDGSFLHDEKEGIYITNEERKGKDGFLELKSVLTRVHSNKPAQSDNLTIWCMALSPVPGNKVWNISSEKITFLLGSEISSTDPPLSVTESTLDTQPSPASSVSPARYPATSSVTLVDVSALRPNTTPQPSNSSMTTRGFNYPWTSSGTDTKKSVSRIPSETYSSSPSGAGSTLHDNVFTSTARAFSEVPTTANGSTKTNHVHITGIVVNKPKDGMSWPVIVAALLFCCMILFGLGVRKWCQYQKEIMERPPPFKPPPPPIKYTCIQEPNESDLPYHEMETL
The description is as above.

Assay [5] concerns the target T4, cynomolgus monkey CD96v1 on transiently transfected HEK cells (cynomolgus monkey).
T4 construct: whole, on cells; also called Cyno CD96v1
The assay is described as above.

Assay [6] addresses T5, blood derived cynomolgus monkey CD96v2 on transiently transfected HEK cells (cynomolgus monkey).
T5 construct: also called Blood derived Cyno CD96v2
The assay is described as above.

B1: 42Y073-86F08-66 (antibody)
heavy: not shown
light: DIQLTQSPSSLSASVGDRVTITCRASQSISSYLNWYQQKPGKAPKLLIYAASSLQSGVPSRFSGSGSGTDFTLTISSLQPEDFATYYCQQVLHTITFGGGTKVEIKRTVAAPSVFIFPPSDEQLKSGTASVVCLLNNFYPREAKVQWKVDNALQSGNSQESVTEQDSKDSTYSLSSTLTLSKADYEKHKVYACEVTHQGLSSPVTKSFNRGEC
notes: also called GSK 6097608; GSK6097608
Consider B1, for which, in assay [1], the 50% effective concentration (EC50 (read off the curve)) is roughly 10 nM. The concentration for a half-maximal effect (EC50) in assay [2] amounted to 4.72 nM; in assay [3], 5.54 nM; in assay [4], 3.13 nM; in assay [5] it was 6.83 nM; in assay [6], 5.27 nM.
